The target of this test is LgBiT (large BiT fragment of split NanoLuc) secreted from GCN4-LgBiT receiver cells. The test is described as follows: split reporter.

For “scFv-SmBiT fusion secreted by sender^high cells (anti-GCN4 scFv, HA tag, G4Sx4 linker, high-affinity SmBiT peptide)”, the fold signal turn-on (co-culture against cells cultured individually) was over 130 fold.
